Columns and labels:
[1] = target: T1, DmoB (Arthrobacter globiformis, UniProt H0QJX4); assay: fluorescence quenching titration of FMN with DmoB; type: binding
T1 sequence (H0QJX4 1-171): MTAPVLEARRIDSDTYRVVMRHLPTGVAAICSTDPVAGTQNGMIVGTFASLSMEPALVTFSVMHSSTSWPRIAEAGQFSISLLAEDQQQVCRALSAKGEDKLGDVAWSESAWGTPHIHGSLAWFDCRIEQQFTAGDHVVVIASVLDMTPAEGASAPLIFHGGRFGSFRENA

[2] = substrate: NC(=O)C1=CN([C@@H]2O[C@H](COP(=O)(O)OP(=O)(O)OC[C@H]3O[C@@H](n4cnc5c(N)ncnc54)[C@H](O)[C@@H]3O)[C@@H](O)[C@H]2O)C=CC1; assay: purified protein; conditions: 50 μM FMN, 20 mM PIPES, pH 7.4, 25 °C
[3] = substrate: Cc1cc2nc3c(=O)[nH]c(=O)nc-3n(C[C@H](O)[C@H](O)[C@H](O)CO)c2cc1C; assay: purified protein; conditions: 50 μM NADH, 20 mM PIPES, pH 7.4, 25 °C
[4] = substrate: Cc1cc2nc3c(=O)[nH]c(=O)nc-3n(C[C@H](O)[C@H](O)[C@H](O)COP(=O)(O)O)c2cc1C; assay: purified protein; conditions: 50 μM NADH, 20 mM PIPES, pH 7.4, 25 °C
[5] = substrate: Cc1cc2nc3c(=O)[nH]c(=O)nc-3n(C[C@H](O)[C@H](O)[C@H](O)COP(=O)(O)OP(=O)(O)OC[C@H]3O[C@@H](n4cnc5c(N)ncnc54)[C@H](O)[C@@H]3O)c2cc1C; assay: purified protein; conditions: 50 μM NADH, 20 mM PIPES, pH 7.4, 25 °C

For `Cc1cc2nc3c(=O)[nH]c(=O)nc-3n(C[C@H](O)[C@H](O)[C@H](O)COP(=O)(O)O)c2cc1C` [FMN], which Kd [1] is on record?
The Kd was 1110 ± 710 nM.

B1: DmoB (Arthrobacter globiformis NBRC 12137) (protein)
chain: T1 sequence (H0QJX4 1-171)
With B1 as the molecule, how does the Km [2] read?
Its Km is 2.3 ± 0.5 µM.

And the Vmax [2]?
Its Vmax is 149 µmol/min/mg.

And the kcat/Km [2]?
Its kcat/Km is 2.09e+07 M⁻¹ s⁻¹.

What about the Km [3] of the same molecule?
The Km was 142 ± 7 µM.

And the Vmax [3]?
The Vmax was 130 µmol/min/mg.

And the kcat/Km [3]?
Its kcat/Km is 283000 M⁻¹ s⁻¹.

And the Km [4]?
The Km was 18 ± 5 µM.

What about the Vmax [4] of the same molecule?
The Vmax was 207 µmol/min/mg.

And the kcat/Km [4]?
Its kcat/Km is 3.72e+06 M⁻¹ s⁻¹.

What about the Km [5] of the same molecule?
Its Km is 84 ± 12 µM.

And the Vmax [5]?
The Vmax was 153 µmol/min/mg.

And the kcat/Km [5]?
Its kcat/Km is 583000 M⁻¹ s⁻¹.
